According to US20110165066A1:

What was measured:
[1] = biological target: human IL-13 wild type (human) (UniProt P35225); test: SPR (Biacore)
[2] = biological target: human IL-13 variant (R130Q) (human) (UniProt P35225); test: SPR (Biacore)
[3] = biological target: human IL-13 wild type (human) (UniProt P35225); test: cell surface-based receptor binding assay, IL-13 binding to IL-13Rα2 on COS cells
[4] = biological target: human IL-13 wild type (human) (UniProt P35225); test: ELISA-based receptor binding assay, blocking biotin-IL-13 binding to IL-13Rα2/Fc
[5] = biological target: human IL-13 wild type (human) (UniProt P35225); test: ELISA-based receptor binding assay, IL-13 binding to IL-13Rα2/Fc
[6] = biological target: human IL-13 wild type (human) (UniProt P35225); test: cell surface-based receptor binding assay, blocking 125I-IL-13 binding to IL-13Rα2-transfected COS cells

Chain of human IL-13 wild type (human) (P35225 other isoform, or with tags, fused parts or gaps limits assumed): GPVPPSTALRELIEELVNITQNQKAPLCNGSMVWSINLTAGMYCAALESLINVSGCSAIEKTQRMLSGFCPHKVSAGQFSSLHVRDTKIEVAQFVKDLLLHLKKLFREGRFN
Chain of human IL-13 variant (R130Q) (human) (P35225 35-146 limits assumed, stated change not applied): as the sequence (P35225 other isoform, or with tags, fused parts or gaps limits assumed) above, with R110Q counted along it

B1: MJ2-7 (antibody, from another filing, V domains shown)
VH: EVQLQQSGAELVKPGASVKLSCTGSGFNIKDTYIHWVKQRPEQGLEWIGRIDPANDNIKYDPKFQGKATITADTSSNTAYLQLNSLTSEDTAVYYCARSEENWYDFFDYWGQGTTLTVSS
VL: DVLMTQTPLSLPVSLGDQASISCRSSQSIVHSNGNTYLEWYLQKPGQSPKLLIYKVSNRFSGVPDRFSGSGSGTDFTLKISRVEAEDLGVYYCFQGSHIPYTFGGGTKLEIK
Kd [1]: 1.14 nM
Kd [2]: 0.79 nM
% inhibition at 100 nM [3]: 70%
IC50 [4]: 19 nM
% inhibition at 100 nM [5]: 60%
IC50 [6]: 17.6 nM
